Here are results for two molecules from patent publication US20150241442A1.

The test deals with Leukocyte Function Antigen-1 (LFA-1), on cells (Jurkat T cells, human T cells, PBMC) (human) (UniProt P20701). Briefly: cell-based or functional assay.
Leukocyte Function Antigen-1 (LFA-1), on cells (Jurkat T cells, human T cells, PBMC) (human), sequence (P20701 26-1170, chain 1 of 2): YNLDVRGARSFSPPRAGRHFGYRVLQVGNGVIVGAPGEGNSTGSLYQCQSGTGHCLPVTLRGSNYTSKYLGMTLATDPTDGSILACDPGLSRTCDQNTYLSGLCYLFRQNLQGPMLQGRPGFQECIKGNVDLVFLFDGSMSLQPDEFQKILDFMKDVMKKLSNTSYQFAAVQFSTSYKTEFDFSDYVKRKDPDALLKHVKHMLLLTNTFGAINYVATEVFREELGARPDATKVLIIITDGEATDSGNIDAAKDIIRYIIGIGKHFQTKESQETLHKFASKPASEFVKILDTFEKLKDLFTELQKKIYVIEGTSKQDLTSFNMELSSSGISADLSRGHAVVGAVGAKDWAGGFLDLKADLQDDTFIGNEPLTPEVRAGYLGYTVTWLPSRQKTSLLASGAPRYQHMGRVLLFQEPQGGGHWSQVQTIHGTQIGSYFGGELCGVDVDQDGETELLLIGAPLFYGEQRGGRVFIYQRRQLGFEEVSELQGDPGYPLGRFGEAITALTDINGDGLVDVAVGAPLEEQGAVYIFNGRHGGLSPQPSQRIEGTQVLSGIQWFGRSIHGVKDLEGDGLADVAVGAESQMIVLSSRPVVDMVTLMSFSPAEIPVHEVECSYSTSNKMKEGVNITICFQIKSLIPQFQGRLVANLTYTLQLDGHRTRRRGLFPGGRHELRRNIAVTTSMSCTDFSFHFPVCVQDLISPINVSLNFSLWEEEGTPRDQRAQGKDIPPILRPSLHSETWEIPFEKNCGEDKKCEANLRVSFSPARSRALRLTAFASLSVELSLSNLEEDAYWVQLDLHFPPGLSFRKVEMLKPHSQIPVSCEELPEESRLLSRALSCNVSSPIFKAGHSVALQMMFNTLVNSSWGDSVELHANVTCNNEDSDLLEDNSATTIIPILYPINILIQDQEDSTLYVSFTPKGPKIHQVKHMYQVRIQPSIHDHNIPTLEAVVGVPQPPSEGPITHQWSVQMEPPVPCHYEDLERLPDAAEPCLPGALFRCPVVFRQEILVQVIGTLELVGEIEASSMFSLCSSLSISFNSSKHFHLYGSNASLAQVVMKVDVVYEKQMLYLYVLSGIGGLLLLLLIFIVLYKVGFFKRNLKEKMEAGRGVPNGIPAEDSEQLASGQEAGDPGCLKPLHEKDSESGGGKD
Leukocyte Function Antigen-1 (LFA-1), on cells (Jurkat T cells, human T cells, PBMC) (human), sequence (P05107 23-769, chain 2 of 2, further chain): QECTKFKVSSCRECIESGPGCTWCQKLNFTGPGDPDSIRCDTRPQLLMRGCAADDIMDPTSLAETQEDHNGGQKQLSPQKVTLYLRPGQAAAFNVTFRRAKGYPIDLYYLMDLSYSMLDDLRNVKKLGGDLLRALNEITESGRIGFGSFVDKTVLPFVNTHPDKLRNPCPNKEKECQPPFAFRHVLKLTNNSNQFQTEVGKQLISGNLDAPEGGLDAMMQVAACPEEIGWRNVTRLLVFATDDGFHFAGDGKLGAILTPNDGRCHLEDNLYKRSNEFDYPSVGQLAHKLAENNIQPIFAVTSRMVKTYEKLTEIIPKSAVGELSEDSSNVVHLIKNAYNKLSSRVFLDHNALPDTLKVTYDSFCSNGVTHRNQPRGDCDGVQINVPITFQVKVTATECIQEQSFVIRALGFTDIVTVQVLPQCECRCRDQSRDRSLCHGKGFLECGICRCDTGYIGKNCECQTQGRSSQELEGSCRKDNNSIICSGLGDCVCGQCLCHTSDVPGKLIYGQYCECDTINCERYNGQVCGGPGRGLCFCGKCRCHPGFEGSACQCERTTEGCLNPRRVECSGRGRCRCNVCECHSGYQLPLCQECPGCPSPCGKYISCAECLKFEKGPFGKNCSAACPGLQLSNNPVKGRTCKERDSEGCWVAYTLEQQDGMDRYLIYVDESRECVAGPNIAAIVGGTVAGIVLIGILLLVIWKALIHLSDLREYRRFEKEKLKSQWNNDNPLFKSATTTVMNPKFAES

B1: recombinant human ICAM2-FC (Fc fusion, UniProt P13598 25-223, looked up, not shown: a dimerising Fc or GST)
chain: KVFEVHVRPKKLAVEPKGSLEVNCSTTCNQPEVGGLETSLDKILLDEQAQWKHYLVSNISHDTVLQCHFTCSGKQESMNSNVSVYQPPRQVILTLQPTLVAVGKSFTIECRVPTVEPLDSLTLFLFRGNETLHYETFGKAAPAPQEATATFNSTADREDGHRNFSCLAVLDLMSRGGNIFHKHSAPKMLEIYEPVSDSQ
B1 showed a frequency of the perforin negative population, CD56+CD8med cells of 21.5% and a granzyme-A negative population, CD56+CD8high cells of 58.3%.

B2: recombinant human ICAM3-FC (Fc fusion, UniProt P32942 30-485, looked up, not shown: a dimerising Fc or GST)
chain: QEFLLRVEPQNPVLSAGGSLFVNCSTDCPSSEKIALETSLSKELVASGMGWAAFNLSNVTGNSRILCSVYCNGSQITGSSNITVYRLPERVELAPLPPWQPVGQNFTLRCQVEDGSPRTSLTVVLLRWEEELSRQPAVEEPAEVTATVLASRDDHGAPFSCRTELDMQPQGLGLFVNTSAPRQLRTFVLPVTPPRLVAPRFLEVETSWPVDCTLDGLFPASEAQVYLALGDQMLNATVMNHGDTLTATATATARADQEGAREIVCNVTLGGERREARENLTVFSFLGPIVNLSEPTAHEGSTVTVSCMAGARVQVTLDGVPAAAPGQPAQLQLNATESDDGRSFFCSATLEVDGEFLHRNSSVQLRVLYGPKIDRATCPQHLKWKDKTRHVLQCQARGNPYPELRCLKEGSSREVPVGIPFFVNVTHNGTYQCQASSSRGKYTLVVVMDIEAGSSH
With B2, the frequency of the perforin negative population, CD56+CD8med cells worked out at 19.8% and the granzyme-A negative population, CD56+CD8high cells amounted to 3.07%.
